Data published in patent US20240350586A1 (TSINGHUA UNIVERSITY, published 2024).

Tests used:
Test in all cases: co-IP with T7-LC3C in HEK293T
HA-CCT1 = target: T1, HA-CCT1 (human, UniProt P17987 1-556)
T1 construct: Amplified from HEK293T cDNA; not shown: N-terminal HA tag
Protocol: (§1) The data are representative of three independent experiments. [0146] […] The data are representative of three independent experiments. [0147] […] The data are representative of three independent experiments. [0148] […] The interaction of the peptides with T7-GABARAP or T7-GABARAPL1 proteins was analyzed by in vitro pull-down. The data are representative of three independent experiments. [0149] […] The data are representative of three independent experiments. [0150] […] [0151] (K) Quantification of Q103-HTT-GFP area/DAPI area (mean±SEM) as shown in [0152] (J). 48 h represents IB accumulation stage and 72 h represents clearance stage. P values are indicated (two-tailed t test, >20 views from three independent experiments). [0153] […] The data are representative of three independent experiments. [0154] […] The data are representative of three independent experiments. [0155] […] The data are representative of three independent experiments.
(§2) Co-immunoprecipitation was performed essentially as described before. In brief, 24 h after transfection, the cells were collected and lysed on ice for 30 min in co-IP buffer (50 mM Tris/HCl pH 7.4, 150 mM NaCl, 1 mM EDTA, 0.5% NP40) with protease inhibitor mixture, and the lysates were cleared by centrifugation. The resulting supernatants were incubated with indicated agarose or magnetic beads and rotated at 4° C. for 3 h. The agarose was washed five times with co-IP buffer.

HA-CCT3 = target: T2, HA-CCT3 (human, UniProt P49368 1-545)
T2 construct: Amplified from HEK293T cDNA; not shown: N-terminal HA tag
T2 sequence: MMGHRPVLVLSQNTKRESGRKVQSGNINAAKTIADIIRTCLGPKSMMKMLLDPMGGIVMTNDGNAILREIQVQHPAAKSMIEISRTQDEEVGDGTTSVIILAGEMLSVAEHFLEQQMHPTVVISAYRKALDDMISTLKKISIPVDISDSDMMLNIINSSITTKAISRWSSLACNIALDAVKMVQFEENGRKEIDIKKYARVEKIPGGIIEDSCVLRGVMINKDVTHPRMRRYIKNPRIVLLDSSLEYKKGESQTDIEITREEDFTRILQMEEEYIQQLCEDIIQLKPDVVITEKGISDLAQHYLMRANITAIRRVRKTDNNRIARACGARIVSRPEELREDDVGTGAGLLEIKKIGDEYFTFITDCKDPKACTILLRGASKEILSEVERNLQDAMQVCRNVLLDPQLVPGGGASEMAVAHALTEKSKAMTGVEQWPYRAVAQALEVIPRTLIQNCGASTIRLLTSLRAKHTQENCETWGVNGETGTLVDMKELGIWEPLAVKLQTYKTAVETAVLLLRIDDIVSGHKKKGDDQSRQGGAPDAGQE
Protocol: as §1, §2

HA-CCT6 = target: T3, HA-CCT6 (human, UniProt P40227 2-531)
T3 construct: Amplified from HEK293T cDNA; not shown: N-terminal HA tag
T3 sequence (P40227 2-531 limits assumed): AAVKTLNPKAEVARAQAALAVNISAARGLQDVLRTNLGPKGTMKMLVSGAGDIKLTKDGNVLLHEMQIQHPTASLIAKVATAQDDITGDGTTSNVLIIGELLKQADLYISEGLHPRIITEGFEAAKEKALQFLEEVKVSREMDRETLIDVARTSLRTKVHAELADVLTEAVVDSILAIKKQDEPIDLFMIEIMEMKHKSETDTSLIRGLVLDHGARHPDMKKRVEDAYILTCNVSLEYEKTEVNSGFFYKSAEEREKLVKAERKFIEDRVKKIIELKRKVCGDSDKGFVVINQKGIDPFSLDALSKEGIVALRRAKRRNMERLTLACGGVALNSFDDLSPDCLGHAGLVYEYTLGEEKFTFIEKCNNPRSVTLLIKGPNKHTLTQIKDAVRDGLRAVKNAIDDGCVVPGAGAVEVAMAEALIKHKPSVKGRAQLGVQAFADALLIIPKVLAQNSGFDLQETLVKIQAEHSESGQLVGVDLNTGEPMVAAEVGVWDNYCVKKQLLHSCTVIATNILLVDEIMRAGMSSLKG
Protocol: as §1, §2

HSPA9-HA = target: T4, HSPA9-HA (Homo sapiens (Human), UniProt P38646 1-679, limits assumed)
T4 construct: Plasmid pCMV3-HSPA9-HA (SinoBiological HG16926-CY); also called long-form of HSPA9; not shown: C-terminal HA tag
T4 sequence (P38646 whole entry): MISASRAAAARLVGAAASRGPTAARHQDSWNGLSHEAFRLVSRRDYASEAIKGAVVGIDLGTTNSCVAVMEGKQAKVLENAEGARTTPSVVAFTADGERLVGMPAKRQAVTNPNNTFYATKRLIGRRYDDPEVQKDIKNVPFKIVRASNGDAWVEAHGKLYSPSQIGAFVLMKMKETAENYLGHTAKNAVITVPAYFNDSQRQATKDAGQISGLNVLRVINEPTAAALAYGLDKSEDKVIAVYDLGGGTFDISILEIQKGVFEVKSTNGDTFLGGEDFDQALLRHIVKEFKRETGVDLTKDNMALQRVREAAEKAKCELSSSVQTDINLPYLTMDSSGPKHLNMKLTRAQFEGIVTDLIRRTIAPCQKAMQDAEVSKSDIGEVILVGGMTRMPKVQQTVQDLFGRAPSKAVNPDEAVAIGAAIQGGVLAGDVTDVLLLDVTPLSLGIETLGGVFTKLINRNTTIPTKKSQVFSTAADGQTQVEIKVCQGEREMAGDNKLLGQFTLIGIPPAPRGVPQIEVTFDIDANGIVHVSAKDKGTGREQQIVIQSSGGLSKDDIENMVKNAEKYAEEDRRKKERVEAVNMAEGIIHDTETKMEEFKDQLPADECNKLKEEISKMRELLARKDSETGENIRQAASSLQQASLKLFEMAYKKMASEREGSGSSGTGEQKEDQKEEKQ
Protocol: as §1, §2

HSP90AB1-HA = target: T5, HSP90AB1-HA (Homo sapiens (Human), UniProt P08238 2-724)
T5 construct: Plasmid pCDNA3-HSP90AB1-HA (addgene 22487); not shown: C-terminal HA tag
T5 sequence (P08238 2-724 limits assumed): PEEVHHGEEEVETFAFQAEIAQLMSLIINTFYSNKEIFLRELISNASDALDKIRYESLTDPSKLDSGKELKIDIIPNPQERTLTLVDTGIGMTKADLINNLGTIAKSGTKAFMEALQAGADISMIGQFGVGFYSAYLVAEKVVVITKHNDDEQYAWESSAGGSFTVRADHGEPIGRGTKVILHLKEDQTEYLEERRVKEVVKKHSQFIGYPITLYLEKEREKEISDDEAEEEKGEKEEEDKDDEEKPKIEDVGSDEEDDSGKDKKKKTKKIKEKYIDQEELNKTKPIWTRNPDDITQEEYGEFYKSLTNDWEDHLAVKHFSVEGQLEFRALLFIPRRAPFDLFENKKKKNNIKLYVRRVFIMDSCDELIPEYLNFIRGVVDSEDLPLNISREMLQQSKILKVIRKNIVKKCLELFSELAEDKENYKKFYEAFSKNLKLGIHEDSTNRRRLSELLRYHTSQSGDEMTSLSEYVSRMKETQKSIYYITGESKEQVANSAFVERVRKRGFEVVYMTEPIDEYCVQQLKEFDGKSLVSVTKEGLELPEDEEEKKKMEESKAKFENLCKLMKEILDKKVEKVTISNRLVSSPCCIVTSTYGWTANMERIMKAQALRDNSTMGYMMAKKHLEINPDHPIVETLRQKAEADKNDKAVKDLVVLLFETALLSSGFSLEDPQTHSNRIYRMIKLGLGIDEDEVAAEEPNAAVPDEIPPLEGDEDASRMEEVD
Protocol: as §1, §2

HA-CCT8 = target: T6, HA-CCT8 (human, UniProt P50990 2-548)
T6 construct: not shown: N-terminal HA tag
T6 sequence (looked up): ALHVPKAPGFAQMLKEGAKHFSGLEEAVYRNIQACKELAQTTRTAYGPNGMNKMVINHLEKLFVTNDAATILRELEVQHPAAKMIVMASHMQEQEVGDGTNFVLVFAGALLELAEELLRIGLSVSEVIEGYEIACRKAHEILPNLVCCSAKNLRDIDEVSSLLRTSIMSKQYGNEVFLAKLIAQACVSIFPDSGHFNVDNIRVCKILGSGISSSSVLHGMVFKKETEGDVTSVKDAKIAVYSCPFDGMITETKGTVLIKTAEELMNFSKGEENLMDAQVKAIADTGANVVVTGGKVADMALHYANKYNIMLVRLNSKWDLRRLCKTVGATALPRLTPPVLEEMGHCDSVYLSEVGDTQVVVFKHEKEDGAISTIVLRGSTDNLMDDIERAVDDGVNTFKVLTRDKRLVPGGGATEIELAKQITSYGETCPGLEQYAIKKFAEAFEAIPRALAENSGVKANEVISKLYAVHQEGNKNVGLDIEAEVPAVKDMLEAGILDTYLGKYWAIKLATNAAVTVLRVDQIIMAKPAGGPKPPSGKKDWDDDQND
Protocol: as §1, §2

T1 sequence (P17987 whole entry): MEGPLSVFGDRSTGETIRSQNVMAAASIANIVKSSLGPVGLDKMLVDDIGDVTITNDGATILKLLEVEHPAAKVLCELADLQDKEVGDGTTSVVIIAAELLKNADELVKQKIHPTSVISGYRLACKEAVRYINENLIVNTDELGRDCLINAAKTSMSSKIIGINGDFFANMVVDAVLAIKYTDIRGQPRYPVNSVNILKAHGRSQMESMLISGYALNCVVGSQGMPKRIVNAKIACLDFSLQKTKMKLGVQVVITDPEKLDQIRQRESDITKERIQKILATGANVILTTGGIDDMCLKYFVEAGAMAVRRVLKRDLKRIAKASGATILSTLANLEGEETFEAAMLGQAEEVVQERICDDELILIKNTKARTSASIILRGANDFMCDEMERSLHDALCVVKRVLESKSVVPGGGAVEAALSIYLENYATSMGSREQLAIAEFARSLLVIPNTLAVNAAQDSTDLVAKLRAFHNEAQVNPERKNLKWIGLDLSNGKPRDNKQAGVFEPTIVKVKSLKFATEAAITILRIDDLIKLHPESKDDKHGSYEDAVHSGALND

binding result (HA-CCT1): binds | binding result (HA-CCT3): binds | binding result (HA-CCT6): binds | binding result (HSPA9-HA): binds | binding result (HSP90AB1-HA): no binding | binding result (HA-CCT8): no binding
B1: T7-LC3C (expressed in cells) (other, UniProt Q9BXW4 1-126, looked up)
chain: MPPPQKIPSVRPFKQRKSLAIRQEEVAGIRAKFPNKIPVVVERYPRETFLPPLDKTKFLVPQELTMTQFLSIIRSRMVLRATEAFYLLVNNKSLVSMSATMAEIYRDYKDEDGFVYMTYASQETFG
notes: Expressed from pCDNA3-T7-LC3C; not shown: T7 tag
